The subject of series [1] is T1, Xenopus Geminin-H, translated in vitro.
T1 sequence: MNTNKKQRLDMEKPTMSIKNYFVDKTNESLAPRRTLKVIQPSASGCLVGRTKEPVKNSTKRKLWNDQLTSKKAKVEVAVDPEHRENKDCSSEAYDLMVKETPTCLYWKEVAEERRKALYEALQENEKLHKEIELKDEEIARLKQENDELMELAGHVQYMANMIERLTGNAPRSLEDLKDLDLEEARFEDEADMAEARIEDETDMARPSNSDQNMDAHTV

The subject of series [2] is T2, geminin^DEL (geminin H with the nine amino acids of the destruction box RRTLKVIQP, 33-41, removed), translated in vitro.
T2 sequence: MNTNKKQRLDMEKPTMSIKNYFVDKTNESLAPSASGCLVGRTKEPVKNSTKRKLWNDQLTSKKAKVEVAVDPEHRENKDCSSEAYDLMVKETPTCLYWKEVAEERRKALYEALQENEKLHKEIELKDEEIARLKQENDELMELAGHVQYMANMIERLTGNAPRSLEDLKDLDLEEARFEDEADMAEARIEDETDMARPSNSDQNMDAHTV

A further series addresses T3, Xmcm3 (Xenopus, UniProt P49739 1-807).
T3 sequence (looked up): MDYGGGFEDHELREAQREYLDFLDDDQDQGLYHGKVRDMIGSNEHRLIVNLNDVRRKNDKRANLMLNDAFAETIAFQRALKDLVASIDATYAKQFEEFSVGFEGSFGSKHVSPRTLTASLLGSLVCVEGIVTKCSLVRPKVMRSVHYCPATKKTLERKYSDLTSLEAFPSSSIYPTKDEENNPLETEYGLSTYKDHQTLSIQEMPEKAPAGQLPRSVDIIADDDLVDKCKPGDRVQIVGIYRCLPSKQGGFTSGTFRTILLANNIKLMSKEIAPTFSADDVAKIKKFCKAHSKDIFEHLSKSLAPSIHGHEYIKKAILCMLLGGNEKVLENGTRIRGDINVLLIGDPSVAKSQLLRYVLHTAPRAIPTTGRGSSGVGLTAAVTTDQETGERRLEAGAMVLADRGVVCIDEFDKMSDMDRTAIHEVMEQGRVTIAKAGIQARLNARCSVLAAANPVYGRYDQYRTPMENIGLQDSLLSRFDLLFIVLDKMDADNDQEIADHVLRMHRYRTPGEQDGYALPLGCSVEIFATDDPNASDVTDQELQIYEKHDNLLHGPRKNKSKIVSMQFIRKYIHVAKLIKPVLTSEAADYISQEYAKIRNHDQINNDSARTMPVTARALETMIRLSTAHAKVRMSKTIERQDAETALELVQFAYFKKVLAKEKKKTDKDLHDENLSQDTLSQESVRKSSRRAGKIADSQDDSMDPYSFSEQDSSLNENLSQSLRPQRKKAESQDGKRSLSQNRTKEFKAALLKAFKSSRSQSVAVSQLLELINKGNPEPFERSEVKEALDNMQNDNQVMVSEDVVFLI
The series is described as follows: co-immunoprecipitation (preliminary experiments).

The next series addresses T4, Xorc2 (Xenopus, UniProt Q91628 1-558).
T4 sequence (looked up): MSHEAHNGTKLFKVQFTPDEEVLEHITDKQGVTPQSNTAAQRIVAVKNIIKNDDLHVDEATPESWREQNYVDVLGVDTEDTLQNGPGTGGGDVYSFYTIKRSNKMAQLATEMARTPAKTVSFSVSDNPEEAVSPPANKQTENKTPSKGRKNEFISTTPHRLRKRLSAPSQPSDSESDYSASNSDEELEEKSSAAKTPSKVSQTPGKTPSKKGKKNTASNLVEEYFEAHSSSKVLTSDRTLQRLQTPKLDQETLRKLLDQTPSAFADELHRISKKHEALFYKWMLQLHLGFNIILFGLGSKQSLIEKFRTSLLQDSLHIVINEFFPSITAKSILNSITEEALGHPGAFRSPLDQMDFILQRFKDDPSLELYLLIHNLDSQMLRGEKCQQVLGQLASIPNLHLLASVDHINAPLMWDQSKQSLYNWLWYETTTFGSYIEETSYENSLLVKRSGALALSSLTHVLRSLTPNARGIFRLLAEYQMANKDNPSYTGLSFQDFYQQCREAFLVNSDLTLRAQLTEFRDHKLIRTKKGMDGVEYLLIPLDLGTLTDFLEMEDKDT
As to the kind of experiment: co-immunoprecipitation (preliminary experiments).

With “interphase APC (immunoprecipitated from interphase Xenopus egg extract)”, the “ubiquitin conjugates (ladder on autoradiogram) in a reconstituted ubiquitination reaction” value in series [1] is recorded as “The ladder did not appear ... if the APC was immunoprecipitated from interphase extracts (lane 7)”. As for “mitotic anaphase promoting complex (APC) of Xenopus mitotic egg extract”, the figures for the “ubiquitin conjugates (ladder on autoradiogram) in a reconstituted ubiquitination reaction” value in series [1] and in series [2] were “a characteristic ladder of ubiquitin conjugates appeared above the starting material” and “The ladder did not appear if the destruction box mutant geminin^DEL was used as the substrate”, respectively.

B1: geminin (Xenopus; as used in the co-immunoprecipitation experiments) (other)
chain: MNTNKKQRLDMEKPTMSIKNYFVDKTNESLAPRRTLKVIQPSASGCLVGRTKEPVKNSTKRKLWNDQLTSKKAKVEVAVDPEHRENKDCSSEAYDLMVKETPTCLYWKEVAEERRKALYEALQENEKLHKEIELKDEEIARLKQENDELMELAGHVQYMANMIERLTGNAPRSLEDLKDLDLEEARFEDEADMAEARIEDETDMARPSNSDQNMDAHTV
For the molecule B1, the binding result in the series with Xmcm3 and with Xorc2 was “no binding” throughout.

Values taken from patent publication US6548290 (Harvard, dated 2003).
